Measured values as given in article doi:10.1101/2025.01.16.633226.
Read-outs that look alike come from different tables or passages of the source.

T1: LARP6 (70-295) (UniProt Q9BRS8 70-295)
T1 sequence: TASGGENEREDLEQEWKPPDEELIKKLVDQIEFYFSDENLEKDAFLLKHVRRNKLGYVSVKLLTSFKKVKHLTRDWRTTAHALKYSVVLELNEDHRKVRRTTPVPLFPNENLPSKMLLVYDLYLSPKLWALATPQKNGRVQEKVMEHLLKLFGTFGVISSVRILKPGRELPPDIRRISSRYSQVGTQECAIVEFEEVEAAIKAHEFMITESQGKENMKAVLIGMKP

T2: LARP6 (ITC) (UniProt Q9BRS8 70-295)
T2 sequence: T1 sequence

B1: COL5A1-CDS (ssRNA)
RNA: CUGCUGCUGCUGCUGUGGGCGCCGCCUCCGAGCCGCGCAGCUCAGCCAGCAGAUCUCCUG
B2: CCNI-5'UTR (ssRNA)
RNA: GGGUCAUCAUGGAACUAAUUCGCUGACCGACCCAGCGGCCGCAGCCGUGCGUCCCGCUCG
B3: A1 (COL1A1 5'SL) (structured_RNA)
RNA: CCACAAAGAGUCUACAUGUCUAGGGUCUAGACAUGUUCAGCUUUGUGG
B4: COL1A1-TIS (structured_RNA)
RNA: CCAGCCACAAAGAGUCUACAUGUCUAGGGUCUAGACAUGUUCAGCUUUGUGGACCUCCGG
B5: LRP1-CDS (ssRNA)
RNA: CUGCAUGUGCACAGCCGGCUAUAGCCUCCGGAGUGGCCAGCAGGCCUGCGAGGGCGUAGG

Legend:
LARP6 (70-295) [1] = biological target: T1, LARP6 (70-295); test: TR-FRET competition
LARP6 (ITC) [2] = biological target: T2, LARP6 (ITC); test: ITC
LARP6 (ITC) [3] = biological target: T2, LARP6 (ITC); test: ITC; remark: listed apart in the source
LARP6 (70-295) [4] = biological target: T1, LARP6 (70-295); test: TR-FRET competition; remark: listed apart in the source
LARP6 (ITC) [5] = biological target: T2, LARP6 (ITC); test: ITC; remark: listed apart in the source
LARP6 (70-295) [6] = biological target: T1, LARP6 (70-295); test: TR-FRET competition; remark: listed apart in the source

Binder	binding result (LARP6 (70-295) [1])	binding result (LARP6 (ITC) [2])	IC50 (LARP6 (70-295) [6]) [nM]	also measured
B1	binds	binds		
B2				binding result (LARP6 (ITC) [3]): no binding; binding result (LARP6 (70-295) [4]): no binding
B3			6.84	Kd (LARP6 (ITC) [5]): > 400 nM
B4			2.71	Kd (LARP6 (ITC) [3]): 400 nM
B5	binds	binds		
